# In patent US20190225686A1 (Daiichi Sankyo, published 2019):
# What was measured:
# human GPR20 [1] = molecular target: T1, human GPR20 (human, UniProt Q99678 1-358); assay: flow cytometry on 293T cells transfected with pcDNA3.1-hGPR20
# T1 construct: 358 amino acids, NCBI NP_005284; also called hGPR20; human GPR20 protein (NP_005284)
# Method: The cells were cultured overnight under conditions of 37° C. and 5% CO₂, and thereafter, a cell suspension was prepared. To the obtained cell suspension, each humanized anti-GPR20 antibody was added, and the obtained mixture was left standing at 4° C. for 1 hour. […] The cells were left standing at 4° C. for 1 hour. The cells were washed twice with PBS supplemented with 5% FBS, and then re-suspended in PBS supplemented with 5% FBS, followed by detection using a flow cytometer (BD FACSCant II; BD Biosciences). The data was analyzed using Flowjo (Tree Star, Inc.). […] In the histograms of FIG. 24, the abscissa depicts the fluorescence intensity of PE indicating the amount of the antibody bound, and the ordinate depicts a cell count.
# human GPR20 [2] = molecular target: T1, human GPR20; assay: cell-based or functional assay
# [3] = molecular target: GPR20-EGFP protein comprising human GPR20 linked at its C-terminus to EGFP (human, UniProt Q99678 1-358); assay: cell-based or functional assay
# GPR20-EGFP protein comprising human GPR20 linked at its C-terminus to EGFP, sequence (Q99678 whole entry): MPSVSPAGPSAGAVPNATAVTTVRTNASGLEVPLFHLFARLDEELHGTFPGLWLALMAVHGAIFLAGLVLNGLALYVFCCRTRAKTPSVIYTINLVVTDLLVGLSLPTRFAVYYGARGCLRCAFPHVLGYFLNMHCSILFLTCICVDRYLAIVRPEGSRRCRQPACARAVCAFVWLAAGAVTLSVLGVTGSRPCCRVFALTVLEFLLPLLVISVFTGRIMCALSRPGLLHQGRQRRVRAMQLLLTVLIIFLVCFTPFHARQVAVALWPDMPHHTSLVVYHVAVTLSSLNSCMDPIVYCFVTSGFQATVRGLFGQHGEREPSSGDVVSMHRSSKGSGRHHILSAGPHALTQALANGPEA
# [4] = molecular target: T2, human/mouse chimeric GPR20 in which EC2 of human GPR20 was substituted with EC2 of mouse GPR20 (human, UniProt Q99678 1-358); assay: Cell-ELISA on 293a cells transiently expressing hGPR20_mECD2
# T2 construct: also called hGPR20_mECD2
# T2 sequence (Q99678 other isoform, or with tags, fused parts or gaps mutant): as the sequence (Q99678 whole entry) above, with Y113F counted along it
# Method: (§1) The cells were left standing at 4° C. for 1 hour. […] The cells were left standing at 4° C. for 1 hour. The cells in the wells were washed three times with PBS (+) supplemented with 5% FBS, and thereafter, OPD chromogenic solution (which had been prepared by dissolving o-phenylenediamine dihydrochloride (Wako Pure Chemical Industries, Ltd.) and H₂O₂ in an OPD solution (0.05 M trisodium citrate, 0.1 M disodium hydrogen phosphate 12-water; pH 4.5), so that the substances became 0.4 mg/ml and 0.6% (v/v), respectively) was added in an amount of 100 μL/well to the wells. A coloring reaction was carried out with occasional stirring. Thereafter, 1 M HCl was added to the plate (100 μL/well) to terminate the coloring reaction, followed by measurement of the absorbance at 490 nm using a plate reader (ENVISION: PerkinElmer, Inc.).
# mouse GPR20 = molecular target: T3, mouse GPR20 (mouse, UniProt Q8BYC4 1-358); assay: Cell-ELISA on 293a cells transiently expressing mouse GPR20
# T3 construct: whole, on cells; also called mGPR20; mouse GPR20 (NP_775541)
# T3 sequence (Q8BYC4 whole entry): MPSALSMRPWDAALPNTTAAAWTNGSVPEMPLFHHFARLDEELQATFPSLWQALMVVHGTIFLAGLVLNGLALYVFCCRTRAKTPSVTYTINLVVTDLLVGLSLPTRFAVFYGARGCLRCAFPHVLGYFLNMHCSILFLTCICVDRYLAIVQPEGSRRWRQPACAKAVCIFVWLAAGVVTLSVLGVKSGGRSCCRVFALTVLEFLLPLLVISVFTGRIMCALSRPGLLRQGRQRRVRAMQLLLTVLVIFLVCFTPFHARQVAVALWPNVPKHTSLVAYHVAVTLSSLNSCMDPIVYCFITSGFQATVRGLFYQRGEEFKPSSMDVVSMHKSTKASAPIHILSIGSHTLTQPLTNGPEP
# Method: as §1
# T1 sequence (Q99678 whole entry): as the sequence (Q99678 whole entry) above
Binder,binding result (human GPR20 [1]),further results
"humanized h046-H4b/L7 (antibody, human IgG1, kappa, Humanized IgG1 / kappa) heavy: not shown light: DTQLTQSPSSLSASVGDRVTITCRASKSVSTYIHWYQQKPGKQPKLLIYSAGNLESGVPSRFSGSGSGTDFTLTISSLQPEDFANYYCQQINELPYTFGQGTKVEIKRTVAAPSVFIFPPSDEQLKSGTASVVCLLNNFYPREAKVQWKVDNALQSGNSQESVTEQDSKDSTYSLSSTLTLSKADYEKHKVYACEVTHQGLSSPVTKSFNRGEC",binds,–
"antibody-drug conjugate (7) h046-H4b/L7-ADC2 (antibody, human IgG1, kappa, ADC2 exatecan drug linker on the interchain-disulfide cysteine, thioether bond; position not given; ADC2 exatecan drug linker (maleimide-PEG2-GGFG-NH-CH2CH2CH2-C(=O)-(NH-DX)) on cysteine sulfhydryls of reduced interchain disulfides, thioether bond; positions not given, average drug number 6.1 (E) / 7.6 (F)) heavy: not shown light: DTQLTQSPSSLSASVGDRVTITCRASKSVSTYIHWYQQKPGKQPKLLIYSAGNLESGVPSRFSGSGSGTDFTLTISSLQPEDFANYYCQQINELPYTFGQGTKVEIKRTVAAPSVFIFPPSDEQLKSGTASVVCLLNNFYPREAKVQWKVDNALQSGNSQESVTEQDSKDSTYSLSSTLTLSKADYEKHKVYACEVTHQGLSSPVTKSFNRGEC",binds,–
"antibody-drug conjugate h046-H4b/L7-ADC1 (antibody, human IgG1, kappa, ADC1 exatecan drug linker on the interchain-disulfide cysteine, thioether bond; position not given; ADC1 exatecan drug linker (maleimidocaproyl-GGFG-NH-CH2-O-CH2-C(=O)-(NH-DX)) on cysteine sulfhydryls of reduced interchain disulfides, thioether bond; positions not given, also called antibody-drug conjugate (3); antibody-drug conjugate (4)) heavy: not shown light: DTQLTQSPSSLSASVGDRVTITCRASKSVSTYIHWYQQKPGKQPKLLIYSAGNLESGVPSRFSGSGSGTDFTLTISSLQPEDFANYYCQQINELPYTFGQGTKVEIKRTVAAPSVFIFPPSDEQLKSGTASVVCLLNNFYPREAKVQWKVDNALQSGNSQESVTEQDSKDSTYSLSSTLTLSKADYEKHKVYACEVTHQGLSSPVTKSFNRGEC",binds,–
"humanized h046-H5b/L2 (antibody, human IgG1, kappa, V domains shown, Humanized IgG1 / kappa) VH: QVQLVQSGAEVKKPGASVKVSCKASGYTFTSYYISWIRQAPGQGLKYMGFINPGSGHTNYNEKFKGRVTITADKSSSTANMELSSLRSEDTAVYYCARGAGGFLRIITKFDYWGQGTLVTVSS VL: DIQMTQSPSSLSASVGDRVTITCRASKSVSTYIHWYQQKPGKQPKLLIYSASNLESGVPSRFSGSGSGTDFTLTISSLQPEDFATYYCQQINELPYTFGQGTKVEIKR",binds,–
"humanized h046-H4e/L7 (antibody, human IgG1, kappa, Humanized IgG1 / kappa) heavy: not shown light: DTQLTQSPSSLSASVGDRVTITCRASKSVSTYIHWYQQKPGKQPKLLIYSAGNLESGVPSRFSGSGSGTDFTLTISSLQPEDFANYYCQQINELPYTFGQGTKVEIKRTVAAPSVFIFPPSDEQLKSGTASVVCLLNNFYPREAKVQWKVDNALQSGNSQESVTEQDSKDSTYSLSSTLTLSKADYEKHKVYACEVTHQGLSSPVTKSFNRGEC",binds,–
"antibody-drug conjugate h046-H4e/L7-ADC1 (antibody, human IgG1, kappa, ADC1 exatecan drug linker on the interchain-disulfide cysteine, thioether bond; position not given; ADC1 exatecan drug linker (maleimidocaproyl-GGFG-NH-CH2-O-CH2-C(=O)-(NH-DX)) on cysteine sulfhydryls of reduced interchain disulfides, thioether bond; positions not given, also called antibody-drug conjugate (13); antibody-drug conjugate (14)) heavy: not shown light: DTQLTQSPSSLSASVGDRVTITCRASKSVSTYIHWYQQKPGKQPKLLIYSAGNLESGVPSRFSGSGSGTDFTLTISSLQPEDFANYYCQQINELPYTFGQGTKVEIKRTVAAPSVFIFPPSDEQLKSGTASVVCLLNNFYPREAKVQWKVDNALQSGNSQESVTEQDSKDSTYSLSSTLTLSKADYEKHKVYACEVTHQGLSSPVTKSFNRGEC",binds,–
"antibody-drug conjugate (5) h046-H5b/L2-ADC1 (antibody, human IgG1, kappa, V domains shown, ADC1 exatecan drug linker on the interchain-disulfide cysteine, thioether bond; position not given; ADC1 exatecan drug linker (maleimidocaproyl-GGFG-NH-CH2-O-CH2-C(=O)-(NH-DX)) on cysteine sulfhydryls of reduced interchain disulfides, thioether bond; positions not given, average drug number 5.4 (E) / 7.9 (F)) VH: QVQLVQSGAEVKKPGASVKVSCKASGYTFTSYYISWIRQAPGQGLKYMGFINPGSGHTNYNEKFKGRVTITADKSSSTANMELSSLRSEDTAVYYCARGAGGFLRIITKFDYWGQGTLVTVSS VL: DIQMTQSPSSLSASVGDRVTITCRASKSVSTYIHWYQQKPGKQPKLLIYSASNLESGVPSRFSGSGSGTDFTLTISSLQPEDFATYYCQQINELPYTFGQGTKVEIKR",binds,–
"antibody-drug conjugate (8) h046-H5b/L2-ADC2 (antibody, human IgG1, kappa, V domains shown, ADC2 exatecan drug linker on the interchain-disulfide cysteine, thioether bond; position not given; ADC2 exatecan drug linker (maleimide-PEG2-GGFG-NH-CH2CH2CH2-C(=O)-(NH-DX)) on cysteine sulfhydryls of reduced interchain disulfides, thioether bond; positions not given, average drug number 6.0 (E) / 7.7 (F)) VH: QVQLVQSGAEVKKPGASVKVSCKASGYTFTSYYISWIRQAPGQGLKYMGFINPGSGHTNYNEKFKGRVTITADKSSSTANMELSSLRSEDTAVYYCARGAGGFLRIITKFDYWGQGTLVTVSS VL: DIQMTQSPSSLSASVGDRVTITCRASKSVSTYIHWYQQKPGKQPKLLIYSASNLESGVPSRFSGSGSGTDFTLTISSLQPEDFATYYCQQINELPYTFGQGTKVEIKR",binds,–
"rat anti-GPR20 antibody 04-079 (antibody, rat IgG2b, V domains shown, Rat IgG2b, kappa; also called 04-079 antibody) VH: QVQLQQSGAELAKPGSSVKISCKASGYTFTSYYITWIKQTTGQGLKYIGYINPGSGHTNYNEKFKGKATLTVDKSSSTAFMQLSSLTPDDSAVYYCARGAGGFLRIISKFDYWGQGVMVTVSS VL: DTVLTQSPALAVSLGQRVTISCRASKSVSTYMHWYQQRSGQQPKLLIYSASNLESGVPSRFSGSGSGTDFTLTIDPVKADDITNYYCQQSNELPYTFGAGTKLELKR",–,cell proliferation suppression rate (Rat-ZAP internalization screening) (human GPR20 [2]): ≥ 60%; Cell survival rate (%) in internalization activity evaluation [3]: 62%; binding result [4]: no binding; binding result (mouse GPR20): no binding
"antibody-drug conjugate (12) h046-H10/L6-ADC1 (antibody, human IgG1, kappa, V domains shown, ADC1 exatecan drug linker on the interchain-disulfide cysteine, thioether bond; position not given; ADC1 exatecan drug linker (maleimidocaproyl-GGFG-NH-CH2-O-CH2-C(=O)-(NH-DX)) on cysteine sulfhydryls of reduced interchain disulfides, thioether bond; positions not given, average drug number 5.5 (E) / 8.0 (F)) VH: QVQLQQSGAELAKPGSSVKVSCKASGYTFTSYYISWIKQTTGQGLKYIGFINPGSGHTNYNEKFKGKATLTVDKSSSTANMQLSSLTPDDSAIYYCARGAGGFLRIITKFDYWGQGVMVTVSS VL: DTQLTQSPSSLSASVGDRVTITCRASKSVSTYIHWYQQKPGKQPKLLIYSASDRESGVPSRFSGSGSGTDFTLTISSLQPEDFANYYCQQINELPYTFGQGTKVEIKR",binds,–
"humanized h046-H10/L6 (antibody, human IgG1, kappa, V domains shown, the claims and summary say 20 to 474) VH: QVQLQQSGAELAKPGSSVKVSCKASGYTFTSYYISWIKQTTGQGLKYIGFINPGSGHTNYNEKFKGKATLTVDKSSSTANMQLSSLTPDDSAIYYCARGAGGFLRIITKFDYWGQGVMVTVSS VL: DTQLTQSPSSLSASVGDRVTITCRASKSVSTYIHWYQQKPGKQPKLLIYSASDRESGVPSRFSGSGSGTDFTLTISSLQPEDFANYYCQQINELPYTFGQGTKVEIKR",binds,–
"rat anti-GPR20 antibody 04-126 (antibody, rat IgG2b, V domains shown, Rat IgG2b, kappa; also called 04-126 antibody; 04-0126) VH: QVQLRQSGAELAKPGSSVKISCKASGYTFTSYYIIWMKQTAGQGLQYVGYINPGSGHTNYNEKFKGKATLTVDKSSSTAFMQLSSLTPDDSAVYYCARGTGGFLRIISKFDYWGQGVMVTVSS VL: DTVLTQSPALAVSLGQRVTISCRASKSVSTYMHWYQQRSGQQPKLLIYSASTLESGVPSRFSGSGSGTDFTLTIDPVEADDIANYYCQQSNELPYTFGAGTKLELKR",–,cell proliferation suppression rate (Rat-ZAP internalization screening) (human GPR20 [2]): ≥ 60%; Cell survival rate (%) in internalization activity evaluation [3]: 54%; binding result [4]: no binding; binding result (mouse GPR20): no binding
"rat anti-GPR20 antibody 04-046 (antibody, rat IgG2b, Rat IgG2b, kappa; also called 04-046 antibody) heavy: QVQLQQSGAELAKPGSSVKISCKASGYTFTSYYISWIKQTTGQGLKYIGFINPGSGHTNYNEKFKGKATLTVDKSSSTAFMQLSSLTPDDSAIYYCARGAGGFLRIITKFDYWGQGVMVTVSSAQTTAPSVYPLAPGCGDTTSSTVTLGCLVKGYFPEPVTVTWNSGALSSDVHTFPAVLQSGLYTLTSSVTSSTWPSQTVTCNVAHPASSTKVDKKVERRNGGIGHKCPTCPTCHKCPVPELLGGPSVFIFPPKPKDILLISQNAKVTCVVVDVSEEEPDVQFSWFVNNVEVHTAQTQPREEQYNSTFRVVSALPIQHQDWMSGKEFKCKVNNKALPSPIEKTISKPKGLVRKPQVYVMGPPTEQLTEQTVSLTCLTSGFLPNDIGVEWTSNGHIEKNYKNTEPVMDSDGSFFMYSKLNVERSRWDSRAPFVCSVVHEGLHNHHVEKSISRPPGK light: DTVLTQSPALAVSLGQRVTISCRASKSVSTYIHWYQQRSGQQPKLLIYSASNLESGVPSRFSGSGSGTDFTLTIDPVEPDDIANYYCQQINELPYTFGAGTKLELKRADAAPTVSIFPPSTEQLATGGASVVCLMNNFYPRDISVKWKIDGTERRDGVLDSVTDQDSKDSTYSMSSTLSLTKADYESHNLYTCEVVHKTSSSPVVKSFNRNEC",–,cell proliferation suppression rate (Rat-ZAP internalization screening) (human GPR20 [2]): ≥ 60%; Cell survival rate (%) in internalization activity evaluation [3]: 57%; binding result [4]: no binding; binding result (mouse GPR20): no binding
"antibody-drug conjugate (1) 046Ch-ADC2 (antibody, human IgG1, ADC2 exatecan drug linker on the interchain-disulfide cysteine, thioether bond; position not given; ADC2 exatecan drug linker (maleimide-PEG2-GGFG-NH-CH2CH2CH2-C(=O)-(NH-DX)) on cysteine sulfhydryls of reduced interchain disulfides, thioether bond; positions not given, average drug number per antibody 5.6 (procedure E)) heavy: not shown light: DTVLTQSPALAVSLGQRVTISCRASKSVSTYIHWYQQRSGQQPKLLIYSASNLESGVPSRFSGSGSGTDFTLTIDPVEPDDIANYYCQQINELPYTFGAGTKLELKRAVAAPSVFIFPPSDEQLKSGTASVVCLLNNFYPREAKVQWKVDNALQSGNSQESVTEQDSKDSTYSLSSTLTLSKADYEKHKVYACEVTHQGLSSPVTKSFNRGEC",binds,–
"antibody-drug conjugate (2) 046Ch-ADC1 (antibody, human IgG1, ADC1 exatecan drug linker on the interchain-disulfide cysteine, thioether bond; position not given; ADC1 exatecan drug linker (maleimidocaproyl-GGFG-NH-CH2-O-CH2-C(=O)-(NH-DX)) on cysteine sulfhydryls of reduced interchain disulfides, thioether bond; positions not given, average drug number per antibody 5.6 (procedure E)) heavy: not shown light: DTVLTQSPALAVSLGQRVTISCRASKSVSTYIHWYQQRSGQQPKLLIYSASNLESGVPSRFSGSGSGTDFTLTIDPVEPDDIANYYCQQINELPYTFGAGTKLELKRAVAAPSVFIFPPSDEQLKSGTASVVCLLNNFYPREAKVQWKVDNALQSGNSQESVTEQDSKDSTYSLSSTLTLSKADYEKHKVYACEVTHQGLSSPVTKSFNRGEC",binds,–
